± gives the standard deviation of the averaged measurements.
Tested on: ATP
Test: switch fluorescence ratio, 500 uM ATP over buffer (Cy3 cluster intensity, sum of 5 cycles each) (fold (ratio)); higher = stronger signal-on switching upon ATP binding; sequences stand for … in TCGTCGGCAGCGTCAGATGTGTATAAGAGACAGTTTTTTTTTTTTTTTTTTTTTTTTT…TC
Settings: aptamer strand: ATP DNA aptamer (quencher-CACCTGGGGGAGTATTGCGGAGGAAGG + anchor), 100 nM annealed; ATP concentration: 500 uM
How it was run: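 Cy3-labelled switching-strand clusters on a modified Illumina MiSeq flow-cell were annealed to 100 nM quencher-labelled ATP aptamer and imaged first in selection buffer, then after 15 min with 500 uM ATP at 22 °C. NaOH stripping and re-annealing separated each of five buffer/ATP cycles, and clusters outside 100-1000 RFU were excluded. The fluorescence ratio sums target-cycle Cy3 intensity over buffer-cycle Cy3 intensity per cluster and averages it per switch-domain sequence.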
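Also: ATP exposure 15 min at 22 °C before imaging.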

Sequence	switch fluorescence ratio
TTTAGTGAAT	0.9966 ± 0.0051
ACCTGGCATC	1.122 ± 0.0016
AGGGAGTTGC	1.03 ± 0.038
TAAATGATTT	1.01 ± 0.014
AATATGAGAT	0.9799 ± 0.0073
TTACCCTGGG	1.07 ± 0.074
AAGAAATTTG	0.992 ± 0.015
GACAGCTTGG	1.0064 ± 9.5e-05
GGAGGAGTGT	0.959 ± 0.037
TAGGCTGCGA	1.04 ± 0.025
TAATATTAAC	1.02 ± 0.03
GTGGACAAGG	0.978 ± 0.031
CGTAATAGAT	1.02 ± 0.026
CATGTTGGGT	1.008 ± 0.007
AAATTCGAAT	1.02 ± 0.041
GACTCTGGGA	1.11 ± 0.027
TCGTATTTTC	0.994 ± 0.058
AGGTTGCCGG	1.04 ± 0.046
CATATGAGGG	0.991 ± 0.07
CAACCAGTGT	1.31 ± 0.026
AGGTACGTGG	0.996 ± 0.059
CGGTCTACCT	1.02 ± 0.014
TGAGATAAAG	0.967 ± 0.001

Sequence	switch fluorescence ratio
ATTCGCTGCT	1 ± 0.02
ATTGACGTGT	1 ± 0.035
GTTTAATTTT	0.987 ± 0.033
AATTTGGTAC	1.068 ± 0.0027
CGACTTGCGT	1.01 ± 0.012
CGGGGTAGTG	0.999 ± 0.02
GGAGGGGATG	0.981 ± 0.011
TTAAGCACTT	1.19 ± 0.062
CGGGGTGTCT	1.02 ± 0.071
TTAAAGTCGT	1.01 ± 0.026
ATCGTTATCA	0.991 ± 0.056
TATATTATGA	0.999 ± 0.023
TTTTCTCACG	1.12 ± 0.11
GATATGAGCG	1.002 ± 0.0018
TTGTGCTGGG	0.998 ± 0.022
GGTCCAAAAT	0.9848 ± 0.0089
TTCTGGCGCG	0.984 ± 0.015
GGGGTAGAAA	0.969 ± 0.013
GAAGTGAGGT	1.01 ± 0.016
GGATTACAGT	0.997 ± 0.014
ATTAATTAAT	1 ± 0.034
TTGATCTAAT	1 ± 0.011
GCATGATAAT	1.004 ± 0.0013

Sequence	switch fluorescence ratio
GTTAAGTAGC	0.971 ± 0.025
AGGGTGCCGT	0.988 ± 0.08
AATGGGTACT	1 ± 0.015
AGCAAAGAGC	0.99 ± 0.037
ATGTACGAGA	1.06 ± 0.019
CCTGGGTGAA	1.2 ± 0.03
GCGGGGTCTG	0.985 ± 0.04
TGAGCTAGCT	1.01 ± 0.033
CAATTGTACT	0.994 ± 0.013
GGGTTGCTTT	1 ± 0.024
TTTTTGAGAA	0.983 ± 0.033
AGGATGGTTC	0.9541 ± 0.0016
GGCTACGTTT	1.05 ± 0.084
TTTGGGCCTC	0.9842 ± 0.0021
GGTACTGGTA	0.984 ± 0.057
GGAAAAGGCT	1.02 ± 0.07
TTTCGAATTG	0.975 ± 0.019
TATCAGATTA	0.998 ± 0.033
AGTATCCAAA	0.999 ± 0.027
CCAGACGCGG	1.14 ± 0.051
TGTGGAAAGG	1 ± 0.014
TTGATCCGGG	1.1 ± 0.055
TAGAGATTTT	1 ± 0.046

Sequence	switch fluorescence ratio
GGGAGAAGCG	0.982 ± 0.014
AAAAATTTAG	0.994 ± 0.034
GGGGTCCGGT	1.06 ± 0.14
AGCTGTGAC	1.07 ± 0.04
GGTTTGTAGG	0.954 ± 0.02
ATACGGGGAT	1.014 ± 0.0093
TTAAGCTTGA	1.015 ± 0.0062
GAGGCTACTG	0.9901 ± 0.0082
ATCCGTGGTT	1.01 ± 0.047
GCTATTTTTG	0.999 ± 0.04
TGAACTTGAC	1.14 ± 0.052
AAGGTTACTC	1.01 ± 0.029
GTGGTTTTTT	0.996 ± 0.022
GTAAGAGCGG	0.9983 ± 0.0065
ACTGTGCTTT	1.015 ± 0.0097
ACTTGGGCGT	1.03 ± 0.038
TTTTAATTAG	1.01 ± 0.018
AAGATAGAAC	0.9783 ± 0.0068
CAGTCCGTTT	1.02 ± 0.012
TTGGGGGTTC	1.01 ± 0.05
GGAATCGGGC	0.9487 ± 0.0014
TAGATTGTGT	0.998 ± 0.027
TGTTTTGGGT	0.985 ± 0.039

Sequence	switch fluorescence ratio
GGCCCCGGCG	1 ± 0.015
TTTCCCAGGA	1.13 ± 0.038
CTATAGGAAA	1.03 ± 0.026
TTTTAGGTAC	1.021 ± 0.0019
AGCAGTTTTT	0.996 ± 0.028
GGTAGTTAGG	1.03 ± 0.013
TGCGCCGGGT	1.12 ± 0.1
ATGGCTTGGT	0.99 ± 0.025
TTTGGGCCTT	1.02 ± 0.034
TTATTCCATA	0.98429 ± 0.00091
CGTGTGGGGT	1.01 ± 0.027
TAGGCTTAGG	1.029 ± 0.0019
TAAAAAAACG	1.1 ± 0.021
TTTTAATTCC	1.02 ± 0.038
TTTCCACAT	0.9719 ± 0.0091
TCTCGGCATT	1.46 ± 0.23
AAAAAAATTG	1 ± 0.017
GTTGTAGGGT	0.976 ± 0.022
TTTCTGGTTG	1.022 ± 0.0078
TTAGACTTTT	1.03 ± 0.012
GAGTTGGGGA	1 ± 0.036
GCTGGGAATT	1 ± 0.016
GGGAAAATAG	0.99 ± 0.012

Sequence	switch fluorescence ratio
TCGATTTGGT	0.9749 ± 0.008
TGGGGTTGTT	0.985 ± 0.033
GACGACGTTG	1.06 ± 0.026
TTCTACCTGA	1.064 ± 0.0086
TCGTCTGCGG	1.04 ± 0.03
GGCTTTTTTC	0.993 ± 0.021
GGGTGGTGGT	0.981 ± 0.043
GAGCTGGGTC	1.02 ± 0.071
TGCAGCAGGT	1.18 ± 0.025
AAAAGAACGC	1.05 ± 0.097
AAAATCAGCG	1 ± 0.051
CCATTAATTT	1.11 ± 0.17
CACGCTAGTA	1.04 ± 0.021
ATGGGTTCAG	0.969 ± 0.0045
TAAATAGAAT	1.11 ± 0.1
TTTGAAATTT	1.006 ± 0.0096
GAGAACAGTG	1.02 ± 0.041
TGCAAAGGGC	1.01 ± 0.015
GATTTTGTTG	0.979 ± 0.014
AGTGGGGTCA	0.989 ± 0.021
ATTGATGGGC	0.9644 ± 0.0037
AGTTCTAGGG	0.971 ± 0.031
TGGTCTAGTG	0.968 ± 0.043

Sequence	switch fluorescence ratio
CCGTTATGCA	1.26 ± 0.018
TTTGAAAGGT	1.04 ± 0.072
GATTTCATAG	1.02 ± 0.063
AGTGTTATTG	0.976 ± 0.028
GTTTACGTTC	1.02 ± 0.049
GGGTGAACTT	0.988 ± 0.033
GCATGATATG	1.01 ± 0.0088
GCCGTCTTGA	1.01 ± 0.041
TAGGCAGAGT	1.01 ± 0.023
CTTCAATTAT	1.01 ± 0.029
GGGTGTTAAC	0.981 ± 0.057
GCGGTTCAGT	1.0109 ± 0.00081
TCGGTGTCGC	0.9621 ± 0.0031
GAAGCTGCCA	1.031 ± 0.0067
GCAAATGGTT	1.01 ± 0.053
CTTGGAGGGA	1.02 ± 0.03
TTAAAGTGCC	1.01 ± 0.0072
AGGATAATGA	0.998 ± 0.03
TGCACCTTGG	1.014 ± 0.0099

— the supplement of paper PMC10126150
